Consider one substance from patent US10660951.

Test [1] addresses envelope of HIV-1 isolate CNE5 on pseudotyped virus (HIV-1 CNE5). In words: cell-based or functional assay.
The target in test [2] is envelope glycoprotein of HIV-1 HXB2 on pseudotyped virus (HIV-1 HXB2) (UniProt P04578). Nature of the test: cell-based or functional assay.

With b12 (antibody), the results for the ND50, neutralization of pseudotyped virus (luciferase) in test [1] and in test [2] were 23.1 µg/mL and 0.119 µg/mL, respectively.
